Like-named read-outs stand apart in the source and are kept apart here.
B1: Re32D03 (VHH)
VHH: QVQLVESGGGLVQPGGSLRLSCAISGITLDYYAVGWFLQAPGKEREGISCMRNWDGRTVYAPSVKGRFTISSDNAKKMVYLEMDNLKSEDTGVYYCAAGPLPPGISCRIPTPLGYDDWGQGTQVTVSS
B2: Re5D06 (VHH)
VHH: QVQLVESGGGLVQPGGSLRLSCAASGITLDYYAIGWFRQAPGKEREGVSRIRSSDGSTNYADSVKGRFTMSRDNAKNTVYLQMNSLKPEDTAVYYCAYGPLTKYGSSWYWPYEYDYWGQGTQVTVSS
B3: Re9B09 (VHH)
VHH: QVQLVESGGGLVQPGGSLRLSCAASGFTLDYYAIGWFRQAPGKEREGVSRISSSDGSTDYADSVKGRFTISRDNAKNTVYLQMNSLKPEDTAVYYCATVPGTYYSGNWYYTWHPEAVDYWGKGTQVTVSS
notes: also called ReB09
B4: Re6H06 (VHH)
VHH: QVQLVESGGGLVQPGGSLRLSCAASGVTLDYYAIGWFRQAPGKEREGVSCTSSSDGSTYYADSVKGRFTISRDNAKNTVYLQMNSLKPEDTGVYYCAVVPQTYYGGKYYSQCTANGMDYWGKGTLVTVSS

Key:
[1] = target: T1, RBD of the SARS-CoV-2 Omicron variant BA.2.75 (SARS-CoV-2 Omicron variant BA.2.75)
B.1.617.2/Delta [2] = target: B.1.617.2/Delta
B.1.617.2/Delta [3] = target: B.1.617.2/Delta; remark: listed apart in the source
[4] = target: T1, RBD of the SARS-CoV-2 Omicron variant …; remark: listed apart in the source

Binder | Kd [1] [nM] | Kd (B.1.617.2/Delta [2]) [nM] | Kd (B.1.617.2/Delta [3]) [nM] | Kd [4] [nM]
B1 | 0.35 | ≤ 0.01 | – | –
B2 | – | – | 0.2 | –
B3 | 2 | 0.3 | – | –
B4 | – | – | 0.1 | ≥ 1000
